# Data: the supplement of paper PMC9112550, “Optimization of the antimicrobial peptide Bac7 by deep mutational scanning” (BMC Biology, 2022)
# Tested on: Escherichia coli TOP10
# Test: shrunken log2 fold change of peptide-encoding DNA abundance (4.5 h post-induction vs induction); higher = less antimicrobial activity (less host growth inhibition)
# Conditions: time post-induction: 4.5 h; library: site-saturation at positions 5, 18, 19, 20
# 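Also: peptides expressed intracellularly from a pBAD plasmid library in pooled LB shake-flask culture, induced with 0.3% L-arabinose, DNA abundance read by NGS, three biological replicates, DESeq2 with apeglm shrinkage.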
row,Sequence,shrunken log2 fold change
1,RRIRDRPPRLPRPRPRPEWTPRP,0.147
2,RRIRVRPPRLPRPRPRPGPSPRP,0.201
3,RRIRKRPPRLPRPRPRPPVRPRP,0.265
4,RRIRPRPPRLPRPRPRPFTIPRP,-0.0323
5,RRIRGRPPRLPRPRPRPGSSPRP,0.028
6,RRIRERPPRLPRPRPRPPRFPRP,0.26
7,RRIRNRPPRLPRPRPRPEASPRP,0.0343
8,RRIRCRPPRLPRPRPRPINNPRP,-0.633
9,RRIRPRPPRLPRPRPRPQWKPRP,0.0366
10,RRIRQRPPRLPRPRPRPRVQPRP,0.527
11,RRIRTRPPRLPRPRPRPCEHPRP,0.00673
12,RRIRQRPPRLPRPRPRPGKIPRP,-0.0789
13,RRIRIRPPRLPRPRPRPFEPPRP,-0.204
14,RRIRTRPPRLPRPRPRPSPQPRP,-0.133
15,RRIRKRPPRLPRPRPRPRAAPRP,1.13
16,RRIRMRPPRLPRPRPRPYNWPRP,-0.337
17,RRIRHRPPRLPRPRPRPRSYPRP,-0.12
18,RRIRNRPPRLPRPRPRPQVYPRP,-0.0412
19,RRIRYRPPRLPRPRPRPDKHPRP,-0.692
20,RRIRLRPPRLPRPRPRPREHPRP,0.204
21,RRIRKRPPRLPRPRPRPCMWPRP,-0.189
22,RRIRHRPPRLPRPRPRPFQAPRP,-0.312

row,Sequence,shrunken log2 fold change
1,RRIRIRPPRLPRPRPRPFCHPRP,-0.302
2,RRIRVRPPRLPRPRPRPYDDPRP,-0.000921
3,RRIRIRPPRLPRPRPRPDYPPRP,-0.584
4,RRIRVRPPRLPRPRPRPMQFPRP,0.0422
5,RRIRGRPPRLPRPRPRPSGDPRP,0.952
6,RRIRMRPPRLPRPRPRPKTMPRP,-0.0578
7,RRIRNRPPRLPRPRPRPDWQPRP,0.184
8,RRIRARPPRLPRPRPRPGLSPRP,0.821
9,RRIRVRPPRLPRPRPRPHYNPRP,-0.366
10,RRIRNRPPRLPRPRPRPNLRPRP,-0.325
11,RRIRERPPRLPRPRPRPIDDPRP,0.0583
12,RRIRQRPPRLPRPRPRPNVGPRP,-0.0447
13,RRIRIRPPRLPRPRPRPEHEPRP,-0.434
14,RRIRNRPPRLPRPRPRPAHAPRP,0.116
15,RRIRARPPRLPRPRPRPERNPRP,0.848
16,RRIRPRPPRLPRPRPRPMMIPRP,0.0824
17,RRIRPRPPRLPRPRPRPPKSPRP,0.177
18,RRIRPRPPRLPRPRPRPNDFPRP,-0.438
19,RRIRGRPPRLPRPRPRPHILPRP,-0.198
20,RRIRGRPPRLPRPRPRPIPMPRP,0.372
21,RRIRIRPPRLPRPRPRPDNTPRP,-0.947
22,RRIRNRPPRLPRPRPRPDHHPRP,0.109

row,Sequence,shrunken log2 fold change
1,RRIRTRPPRLPRPRPRPVDTPRP,0.0439
2,RRIRFRPPRLPRPRPRPYWKPRP,-0.0922
3,RRIRARPPRLPRPRPRPMHHPRP,0.112
4,RRIRERPPRLPRPRPRPHNAPRP,-0.192
5,RRIRGRPPRLPRPRPRPPIKPRP,0.403
6,RRIRFRPPRLPRPRPRPRSRPRP,-0.016
7,RRIRHRPPRLPRPRPRPAQQPRP,-0.0312
8,RRIRQRPPRLPRPRPRPDAIPRP,0.0472
9,RRIRFRPPRLPRPRPRPNNLPRP,-0.12
10,RRIRRRPPRLPRPRPRPNMCPRP,-0.368
11,RRIRNRPPRLPRPRPRPDHKPRP,-0.398
12,RRIRRRPPRLPRPRPRPKQPPRP,0.0672
13,RRIRKRPPRLPRPRPRPVYMPRP,-0.082
14,RRIRIRPPRLPRPRPRPKAVPRP,-0.00677
15,RRIRWRPPRLPRPRPRPDAYPRP,0.309
16,RRIRDRPPRLPRPRPRPKVTPRP,-0.0277
17,RRIRLRPPRLPRPRPRPWNKPRP,-0.436
18,RRIRHRPPRLPRPRPRPIKNPRP,-0.563
19,RRIRLRPPRLPRPRPRPRCCPRP,0.0851
20,RRIRQRPPRLPRPRPRPSFEPRP,-0.213
21,RRIRARPPRLPRPRPRPDFQPRP,0.149
22,RRIRQRPPRLPRPRPRPNGQPRP,-0.262

row,Sequence,shrunken log2 fold change
1,RRIRHRPPRLPRPRPRPTVLPRP,-0.109
2,RRIRYRPPRLPRPRPRPHTCPRP,-0.191
3,RRIRWRPPRLPRPRPRPEPFPRP,-0.0317
4,RRIRCRPPRLPRPRPRPTCIPRP,-0.307
5,RRIRLRPPRLPRPRPRPHNTPRP,-0.61
6,RRIRPRPPRLPRPRPRPLYGPRP,0.0853
7,RRIRSRPPRLPRPRPRPEMPPRP,0.00153
8,RRIRCRPPRLPRPRPRPTSQPRP,0.00813
9,RRIRPRPPRLPRPRPRPLRKPRP,0.319
10,RRIRERPPRLPRPRPRPRERPRP,0.389
11,RRIRLRPPRLPRPRPRPGNTPRP,-0.242
12,RRIRQRPPRLPRPRPRPTQLPRP,0.375
13,RRIRRRPPRLPRPRPRPACPPRP,0.353
14,RRIRYRPPRLPRPRPRPIAAPRP,-0.158
15,RRIRIRPPRLPRPRPRPQCCPRP,-0.0258
16,RRIRFRPPRLPRPRPRPWDRPRP,-0.167
17,RRIRQRPPRLPRPRPRPWNDPRP,-0.373
18,RRIRWRPPRLPRPRPRPNFMPRP,0.0497
19,RRIRSRPPRLPRPRPRPMEHPRP,-0.122
20,RRIRERPPRLPRPRPRPFSNPRP,-0.441
21,RRIRFRPPRLPRPRPRPCFMPRP,-0.213
22,RRIRERPPRLPRPRPRPVCLPRP,-0.0994

row,Sequence,shrunken log2 fold change
1,RRIRVRPPRLPRPRPRPLPDPRP,-0.0431
2,RRIRIRPPRLPRPRPRPFHWPRP,0.0373
3,RRIRIRPPRLPRPRPRPRVQPRP,0.0871
4,RRIRRRPPRLPRPRPRPHMDPRP,-0.265
5,RRIRERPPRLPRPRPRPGSHPRP,-0.152
6,RRIRARPPRLPRPRPRPMNPPRP,-0.0638
7,RRIRERPPRLPRPRPRPLDYPRP,-0.163
8,RRIRGRPPRLPRPRPRPHMMPRP,-0.0708
9,RRIRPRPPRLPRPRPRPGQNPRP,0.0194
10,RRIRIRPPRLPRPRPRPCCAPRP,-0.172
11,RRIRSRPPRLPRPRPRPSALPRP,-0.0202
12,RRIRMRPPRLPRPRPRPMIMPRP,0.421
13,RRIRFRPPRLPRPRPRPSIIPRP,-0.279
14,RRIRRRPPRLPRPRPRPNQWPRP,0.128
15,RRIRYRPPRLPRPRPRPMPYPRP,-0.0899
16,RRIRWRPPRLPRPRPRPKEMPRP,0.476
17,RRIRMRPPRLPRPRPRPWVKPRP,-0.00556
18,RRIRTRPPRLPRPRPRPQGEPRP,-0.0823
19,RRIRMRPPRLPRPRPRPENLPRP,-0.00111
20,RRIRDRPPRLPRPRPRPKTYPRP,-0.227
21,RRIRKRPPRLPRPRPRPDQRPRP,0.458
